In patent US11857697B2, “Compositions and methods for obtaining 3-dimensional lung-like epithelium and related uses thereof” (THE REGENTS OF THE UNIVERSITY OF MICHIGAN, priority 2017, dated 2024):

How the values were obtained:
E13.5 mouse lung buds = assay: Marker expression (QRT-PCR, immunostaining) in cultured mouse lung buds; format: cell-based
Method: RNA was extracted using the MagMAX-96 Total RNA Isolation System (Life Technologies). RNA quality and concentration was determined on a Nanodrop 2000 spectrophotometer (Thermo Scientific). 100 ng of RNA was used to generate a cDNA library using the SuperScript VILO cDNA master mix kit (Invitrogen) according to manufacturer's instructions. qRT-PCR analysis was conducted using Quantitect SYBR Green Master Mix (Qiagen) on a Step One Plus Real-Time PCR system (Life Technologies). Expression was calculated as a change relative to GAPDH expression using arbitrary units, which were calculated by the following equation: [2^(GAPDH Ct−Gene Ct)]×10,000. A Ct value of 40 or greater was considered not detectable. A list of primer sequences used can be found in Table 1.
Mouse bud, human bud, and HLO tissue was fixed in 4% Paraformaldehyde (Sigma) for 2 hours and rinsed in PBS overnight. Tissue was dehydrated in an alcohol series, with 30 minutes each in 25%, 50%, 75% Methanol:PBS/0.05% Tween-20, followed by 100% Methanol, and then 100% Ethanol. Tissue was processed into paraffin using an automated tissue processor (Leica ASP300). Paraffin blocks were sectioned 5-7 uM thick, and immunohistochemical staining was performed as previously described (Spence et al., 2009). A list of antibodies, antibody information and concentrations used can be found in Table 2. PAS Alcian blue staining was performed using the Newcomer supply Alcian Blue/PAS Stain kit (Newcomer Supply, Inc.) according to manufacturer's instructions.
For whole mount staining tissue was placed in a 1.5 mL eppendorf tube and fixed in 4% paraformaldehyde (Sigma) for 30 minutes. Tissue was then washed with PBS/0.05% Tween-20 (Sigma) for 5 hours, followed by a 2.5-hour incubation with blocking serum (PBS-Tween-20 plus 5% normal donkey serum). Primary antibodies were added to blocking serum and tissue was incubated for at least 24 hours at 4 degrees Celsius. Tissue was then washed for 5 hours with several changes of fresh PBS-Tween-20. Secondary antibodies were added to fresh blocking solution and tissue was incubated for 12-24 hours, followed by 5 hours of PBS-Tween-20 washes. Tissue was then dehydrated to 100% methanol and carefully moved to the center of a single-well EISCO concave microscope slide (ThermoFisher Cat#S99368) using a glass transfer pipette. 5-7 drops of Murray's clear ([…] [Sigma]) were added to the center of the slide, and slides were coverslipped and sealed with clear nail polish.

[1] = test system: E13.5 mouse distal epithelial lung buds; assay: Isolated E13.5 mouse distal lung bud culture in Matrigel droplet: growth/expansion; format: cell-based
Method: Isolated mouse buds were cultured in 4-6 μl droplets of matrigel, covered with media, and kept at 37 degrees Celsius with 5% Carbon Dioxide. Isolated human fetal lung buds were cultured in 25-50 μl droplets of matrigel, covered with media, and kept at 37 degrees Celsius with 5% Carbon Dioxide.
Mouse buds were dissected from E13.5 embryos. For experiments using Sox9CreER; Rosa^Tomato/Tomato mice, 50 ug/g of tamoxifen was dissolved in corn oil and given by oral gavage on E12.5, 24 hours prior to dissection. Briefly, in sterile environment, whole lungs were placed in 100% dispase (Corning Cat#354235) on ice for 30 minutes. Lungs were then transferred using a 25 uL wiretrol tool (Drummond Scientific Cat#S5-000-2050) to 100% FBS (Corning Cat#35-010-CV) on ice for 15 minutes, and then transferred to a solution of Dulbecco's Modified Eagle Medium: Nutrient Mixture F12 (DMEM/F12, ThermoFisher SKU#12634-010) with 10% FBS and 1× Pennicillin-Streptomycin (ThermoFisher Cat#15140122) on ice. To dissect buds, a single lung or lung lobe was transferred by wiretrol within a droplet of media to a 100 mm sterile petri dish. Under a dissecting microscope, the mesenchyme was carefully removed and epithelial bud tips were torn away from the bronchial tree using tungsten needles (Point Technologies, Inc.). Care was taken to remove the trachea and any connective tissue from dissected lungs. Isolated bud tips were picked up using a p20 pipette and added to an eppendorf tube with cold Matrigel (Corning Ref#354248) on ice. The buds were picked up in a p20 pipette with 4-6 uL of Matrigel and plated on a 24-well tissue culture well (ThermoFisher Cat#142475). The plate was moved to a tissue culture incubator and incubated for 5 minutes at 37 degrees Celsius and 5% CO2 to allow the Matrigel droplet to solidify. 500 uL of media was then added to the dish in a laminar flow hood. Media was changed every 2-3 days.
All mouse bud, human fetal bud, and hPSC-derived human lung organoids were grown in low-serum basal media (basal media) with added growth factors. Basal media consisted of Dulbecco's Modified Eagle Medium: Nutrient Mixture F12 (DMEM/F12, ThermoFisher SKU#12634-010) supplemented with 1× N2 supplement (ThermoFisher Catalog#17502048) and […] B27 supplement (ThermoFisher Catalog#17504044), along with 2 mM Glutamax (ThermoFisher Catalog#35050061), 1× Pennicillin-Streptomycin (ThermoFisher Cat#15140122) and 0.05% Bovine Serum Albumin (BSA; Sigma product# A9647). BSA was weighed and dissolved in DMEM F/12 media before being passed through a SteriFlip 0.22 uM filter (Millipore Item# EW-29969-24) and being added to basal media. Media was stored at 4 degrees Celsius for up to 1 month. On the day of use, basal media was aliquoted and 50 ug/mL Ascorbic acid and 0.4 uM Monothioglycerol was added. […]

B1: Recombinant Human Fibroblast Growth Factor 7 (protein, UniProt P21781 32-194, looked up)
Fibroblast growth factor 7: CNDMTPEQMATNVNCSSPERHTRSYDYMEGGDIRVRRLFCRTQWYLRIDKRGKVKGTQEMKNNYNIMEIRTVAVGIVAIKGVESEFYLAMNKEGKLYAKKECNEDCNFKELILENHYNTYASAKWTHNGGEMFVALNQKGIPVRGKKTKKEQKTAHFLPMAIT
notes: Recombinant human growth factor from R&D systems, used at 10 ng/mL unless otherwise noted
- Scgb1a1 expression after switch to FGF7 only (QRT-PCR) (E13.5 mouse lung buds; 5 days 4F media then 4 days FGF7 only, versus 4F): increased
- SOX9 protein and mRNA expression after switch to FGF7 only (E13.5 mouse lung buds; 5 days 4F media then 4 days FGF7 only, versus 4F throughout): reduction of SOX9 protein and mRNA expression
- Sox9 expression over time in culture (QRT-PCR) (E13.5 mouse lung buds; FGF7 culture, compared to day 0): significantly reduced after 3 days in culture
- Expression of mature alveolar markers Aqp5 and Sftpb over time (QRT-PCR) (E13.5 mouse lung buds; FGF7 culture, length of time in culture): significant increases
- Bud growth ([1]; FGF7 1 ng/mL, 3 and 5 days in vitro): very modest growth
- Bud growth ([1]; FGF7, all other conditions above 1 ng/mL, 5 days in vitro): robust growth
- Growth, expansion and survival of isolated buds ([1]; individual growth factor in basal media, FGF7 10 ng/mL, up to two weeks): promoted growth, expansion a survival of isolated buds for up to two weeks
